Laboratory results reported in article PMC5389854, “Functional analysis of the GmESR1 gene associated with soybean regeneration”.

Target: GmESR1 (Glycine max cv. Dongnong 50, UniProt K7K6B8 5-391)
Test: EMSA; EMSA as in Kass et al. (2000); buffer, salt, pH and temperature not stated
Conditions: protein: recombinant; tags: His (pET-29b); label: digoxigenin-ddUTP; blunt

GmESR1, sequence (K7K6B8 entry or part of it): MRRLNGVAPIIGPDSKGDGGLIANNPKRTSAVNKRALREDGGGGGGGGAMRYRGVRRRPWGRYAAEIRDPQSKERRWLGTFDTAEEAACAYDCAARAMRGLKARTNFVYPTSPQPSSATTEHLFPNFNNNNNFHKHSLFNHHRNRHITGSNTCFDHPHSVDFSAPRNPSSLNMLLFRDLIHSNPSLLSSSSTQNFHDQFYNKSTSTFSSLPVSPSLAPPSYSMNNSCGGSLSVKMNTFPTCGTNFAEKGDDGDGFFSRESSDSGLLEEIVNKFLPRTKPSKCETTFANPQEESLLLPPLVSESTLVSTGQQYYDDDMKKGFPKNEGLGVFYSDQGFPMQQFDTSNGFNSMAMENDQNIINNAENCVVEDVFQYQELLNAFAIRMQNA

B1: mGCC-box probe (dsDNA)
DNA 1: ATCCATAAGATCCTCCACTAAAATAAGACCGATCAA
DNA 2: TTGATCGGTCTTATTTTAGTGGAGGATCTTATGGAT
binding result: no binding
